The assay concerns the target T1, ASIC1a (human (endogenous in U251 MG, A172, A549)) (UniProt P78348).
T1 sequence: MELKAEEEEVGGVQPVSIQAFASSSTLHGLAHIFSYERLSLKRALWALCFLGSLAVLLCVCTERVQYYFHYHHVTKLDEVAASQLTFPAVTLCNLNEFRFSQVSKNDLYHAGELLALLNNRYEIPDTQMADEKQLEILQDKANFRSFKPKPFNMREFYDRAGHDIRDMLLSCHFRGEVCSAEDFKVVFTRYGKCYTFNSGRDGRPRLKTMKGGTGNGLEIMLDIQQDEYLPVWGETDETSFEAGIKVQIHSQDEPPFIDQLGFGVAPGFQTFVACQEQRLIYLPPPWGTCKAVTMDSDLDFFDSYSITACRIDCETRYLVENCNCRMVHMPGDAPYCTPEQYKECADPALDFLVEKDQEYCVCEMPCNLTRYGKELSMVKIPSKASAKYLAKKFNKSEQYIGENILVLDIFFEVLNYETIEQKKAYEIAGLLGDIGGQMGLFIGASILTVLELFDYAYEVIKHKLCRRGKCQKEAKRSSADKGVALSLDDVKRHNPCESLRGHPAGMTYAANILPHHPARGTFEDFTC

Consider 1 molecule from article PMC7138811.

B1: recombinant mambalgin-2 (peptide)
chain: LKCFQHGKVVTCHRDMKFCYHNTGMPFRNLKLILQGCSSSCSETENNKCCSTDRCNK
B1 showed a growth of A172 glioma cells expressing the ASIC1a subunit, EC50 of 10 nM; a growth of A549 lung carcinoma cells expressing the ASIC1a subunit, EC50 of 8 nM; a growth of U251 MG glioma cells expressing the ASIC1a subunit, EC50 of 0.9 nM.
